Test results from patent publication US20170349669A1 (Hoffmann-La Roche, published 2017).
Where a chain is given by its changes, count along the chain named.

T1: human Ang-2-RBD-Fc (human, UniProt O15123 275-496, limits assumed)
T1 construct: domain: RBD; Used as analyte in solution; The KD is called apparent; not shown: Fc part
T1 sequence (looked up): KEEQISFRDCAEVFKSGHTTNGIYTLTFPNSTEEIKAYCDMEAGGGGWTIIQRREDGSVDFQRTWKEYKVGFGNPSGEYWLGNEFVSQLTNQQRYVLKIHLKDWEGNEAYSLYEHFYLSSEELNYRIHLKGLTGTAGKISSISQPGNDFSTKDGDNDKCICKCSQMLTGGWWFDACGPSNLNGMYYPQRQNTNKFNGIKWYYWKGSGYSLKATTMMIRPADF

T2: human VEGFA-121-His (human, UniProt P15692-9 27-147)
T2 construct: Captured on an anti-His antibody surface; P15692 is the canonical VEGF-A entry, and the 121 isoform is one of its splice forms; also called VEFGA-121-His; not shown: His tag
T2 sequence (looked up): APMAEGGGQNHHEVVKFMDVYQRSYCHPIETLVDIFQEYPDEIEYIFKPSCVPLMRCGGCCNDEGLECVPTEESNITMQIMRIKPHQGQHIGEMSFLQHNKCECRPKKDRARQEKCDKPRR

B1: Ang2VEGF_280 (bispecific antibody, human IgG1, kappa)
heavy 1: not shown
light 1: EVQLVESGGGLVQPGGSLRLSCAASGYTFTNYGMNWVRQAPGKGLEWVGWINTYTGEPTYAADFKRRFTFSLDTSKSTAYLQMNSLRAEDTAVYYCAKYPHYYGSSHWYFDVWGQGTLVTVSSASTKGPSVFPLAPSSKSTSGGTAALGCLVKDYFPEPVTVSWNSGALTSGVHTFPAVLQSSGLYSLSSVVTVPSSSLGTQTYICNVNHKPSNTKVDKKVEPKSC
heavy 2: not shown
light 2: QPGLTQPPSVSVAPGQTARITCGGNNIGSKSVHWYQQKPGQAPVLVVYDDSDRPSGIPERFSGSNSGNTATLTISRVEAGDEADYYCQVWDSSSDHYVFGTGTKVTVLRTVAAPSVFIFPPSDKKLKSGTASVVCLLNNFYPREAKVQWKVDNALQSGNSQESVTEQDSKDSTYSLSSTLTLSKADYEKHKVYACEVTHQGLSSPVTKSFNRGEC
notes: Bivalent CrossMAb-Fab with four different chains; also called Ang2VEGF-0280
B2: Ang2VEGF_290 (bispecific antibody, human IgG1, kappa, lambda)
heavy 1: not shown
light 1: B1 light 1
heavy 2: not shown
light 2: QPGLTQPPSVSVAPGQTARITCGGNNIGSKSVHWYQQKPGQAPVLVVYDDSDRPSGIPERFSGSNSGNTATLTISRVEAGDEADYYCQVWDSSSDHYVFGTGTKVTVLGQPKAAPSVTLFPPSSEELQANKATLVCLISDFYPGAVTVAWKADSSPVKAGVETTTPSKQSNNKYAASSYLSLTPEQWKSHRSYSCQVTHEGSTVEKTVAPTECS
notes: The Ang2 arm has a lambda light chain; also called Ang2VEGF-0290 (wt); Ang2VEGF-0290
B3: Ang2VEGF_279 (bispecific antibody, human IgG1, kappa, lambda)
heavy 1: not shown
light 1: B1 light 1
heavy 2: not shown
light 2: B2 light 2 with E125K, E126K
notes: The Ang2 arm has a lambda light chain; also called Ang2VEGF-0279
B4: Ang2VEGF_467 (bispecific antibody, human IgG1, kappa)
heavy 1: not shown
light 1: B1 light 1
heavy 2: not shown
light 2: B1 light 2
notes: Wild type CH3 domains, no knob-into-hole
B5: Ang2VEGF_468 (bispecific antibody, human IgG1, kappa)
heavy 1: not shown
light 1: B1 light 1
heavy 2: not shown
light 2: B1 light 2
notes: as for B4

The binders below were run against T1, human Ang-2-RBD-Fc (assay: SPR Biacore T200, apparent KD, antibody captured via anti-human F(ab')2, Ang2-RBD-Fc as analyte).
Description: (§1) Binding of indicated antibodies to human Ang-2-RBD-Fc was investigated by surface plasmon resonance using a BIACORE® T200 instrument (GE Healthcare). Around 8000 (RU) of goat anti human F(ab′)₂ (10 μg/ml anti human F(ab)′₂; Order Code: 28958325; GE Healthcare Bio-Sciences AB, Sweden) were coupled on a Series S CM5 chip (GE Healthcare BR-1005-30) at pH 5.0 by using an amine coupling kit supplied by the GE Healthcare. HBS-N (10 mM HEPES, 150 mM NaCl pH 7.4, GE Healthcare) was used as running buffer during the immobilization procedure. For the following kinetic characterization, sample and running buffer was PBS-T (10 mM phosphate buffered saline including 0.05% Tween20) at pH 7.4. The flow cell was set to 25° C.—and the sample block set to 12° C.—and primed with running buffer twice prior to kinetic characterization.
(§2) The bispecific antibody was captured by injecting a 5 nM solution for 25 sec at a flow of 5 μl/min. The association was measured by injection of human Ang2-RBD-Fc in various concentrations in solution for 120 sec at a flow of 30 μl/min starting with 100 nM in 1:3 serial dilutions. The dissociation phase was monitored for up to 180 sec and triggered by switching from the sample solution to running buffer. The surface was regenerated by 60 sec washing with a Glycine pH 2.1 solution at a flow rate of 30 μl/min. Bulk refractive index differences were corrected by subtracting the response obtained from a goat anti human F(ab′)₂ surface. Blank injections are also subtracted (=double referencing). For calculation of apparent KD the Langmuir 1:1 model was used.
Binder B1 has a Kd of 3 nM. Binder B2 has a Kd of 3 nM. For B3, the Kd was 5 nM.

Each binder was assayed against T2, human VEGFA-121-His (assay: SPR Biacore T200, VEGFA-121-His captured via anti-His, antibody as analyte, 1:1 Langmuir).
Description: as §1, with “VEGFA-121” for “Ang-2-RBD-Fc”, “10000” for “8000”, “of” for “of goat”, “His antibody (1” for “human F(ab′)₂ (10”, “His antibody;” for “human F(ab)′₂;”, “28995056;” for “28958325;”
(§3) VEFGA-121-His was captured by injecting a 0.5 μg/ml solution for 30 sec at a flow of 5 μl/min. The association was measured by injection of the indicated antibodies in various concentrations in solution for 180 sec at a flow of 30 μl/min starting with 1000 nM in 1:3 serial dilutions. The dissociation phase was monitored for up to 600 sec and triggered by switching from the sample solution to running buffer. The surface was regenerated by 60 sec washing with a Glycine pH 1.5 solution at a flow rate of 30 μl/min. Bulk refractive index differences were corrected by subtracting the response obtained from a anti His antibody surface. Blank injections are also subtracted (=double referencing). For calculation of KD and other kinetic parameters the Langmuir 1:1 model was used.
B1 was tested, and the Kd was 7 nM. With B2 the Kd was 8 nM. For B3, the Kd was 6 nM.

Molecular target: T2, human VEGFA-121-His
Experiment: as above
Remark: another data set of the same source
Description: as §1, with “VEGFA-121” for “Ang-2-RBD-Fc”, “10000” for “8000”, “of” for “of goat”, “His antibody (1” for “human F(ab′)₂ (10”, “His antibody;” for “human F(ab)′₂;”, “28995056;” for “28958325;”
as §3
Work on B1 yielded a Kd of 7 nM. B4 gave a Kd of 17 nM. Work on B5 yielded a Kd of 22 nM.

Molecular target: T1, human Ang-2-RBD-Fc
Experiment: SPR Biacore T200, apparent KD, antibody captured via anti-human F(ab')2, Ang2-RBD-Fc as analyte
Remark: another data set of the same source
Description: as §1, §2
Work on B1 yielded a Kd of 3 nM. B4 showed a Kd of 0.5 nM. B5 showed a Kd of 0.5 nM.
